The target of test [1] is pericentrin (Xenopus egg extract) (Xenopus laevis (endogenous in egg extracts)). The test is described as follows: quantitative Western blot. Particulars: scale: γ-tubulin molecules per pericentrin molecule. For orientation: Immunoblotting shows a protein as a band on a membrane.
Test [2] deals with γ-tubulin (Xenopus egg extract) (Xenopus laevis (endogenous in egg extracts)) (UniProt P23330). The test is described as follows: co-IP.

What is called stoichiometry N is a count of units in the complex or per binding partner. On to “γ-tubulin (Xenopus egg extract) (from UniProt P23330 1-451) (natural protein)”, for which the stoichiometry N in test [1] was 30.
For the substance “pericentrin (Xenopus egg extract) (natural protein)”, the percent of pericentrin co-depleted with γ-tubulin in test [2] fell in the range of 85 to 95%.

Source of the values: PMC2132723.
